From paper PMC10864366, “Aggresome formation promotes ASK1/JNK signaling activation and stemness maintenance in ovarian cancer” (Nature Communications, 2024)

Target: the molecule itself
Test: gel-shift assay (SDS-PAGE of heated and unheated protein, Coomassie stain); purified OTUD1 WT and Δ105–164 protein; heated (100 °C) and unheated samples separated by SDS-PAGE

B1: purified OTUD1 protein (WT), pET28a-mEGFP-OTUD1 (natural protein, UniProt Q5VV17 1-481, looked up)
chain: MQLYSSVCTHYPAGAPGPTAAAPAPPAAATPFKVSLQPPGAAGAAPEPETGECQPAAAAEHREAAAVPAAKMPAFSSCFEVVSGAAAPASAAAGPPGASCKPPLPPHYTSTAQITVRALGADRLLLHGPDPVPGAAGSAAAPRGRCLLLAPAPAAPVPPRRGSSAWLLEELLRPDCPEPAGLDATREGPDRNFRLSEHRQALAAAKHRGPAATPGSPDPGPGPWGEEHLAERGPRGWERGGDRCDAPGGDAARRPDPEAEAPPAGSIEAAPSSAAEPVIVSRSDPRDEKLALYLAEVEKQDKYLRQRNKYRFHIIPDGNCLYRAVSKTVYGDQSLHRELREQTVHYIADHLDHFSPLIEGDVGEFIIAAAQDGAWAGYPELLAMGQMLNVNIHLTTGGRLESPTVSTMIHYLGPEDSLRPSIWLSWLSNGHYDAVFDHSYPNPEYDNWCKQTQVQRKRDEELAKSMAISLSKMYIEQNACS
notes: OTUD1, wild type; also called purified native WT OTUD1 protein; source: pET28a-mEGFP-OTUD1 construct, purified
B1: binds.
